From PMC8567388

Tests used:
[1] = molecular target: PSD-95 PDZ1 6xHis (human); test: ITC
[2] = molecular target: PSD-95 PDZ1-2 6xHis (human); test: ITC

B1: Stargazin_CT (aa 203-323) (domain or fragment)
chain: DRHKQLRATARATDYLQASAITRIPSYRYRYQRRSRSSSRSTEPSHSRDASPVGVKGFNTLPSTEISMYTLSRDPLKAATTPTATYNSDRDNSFLQVHNCIQKDSKDSLHANTANRRTTPV
Kd [1]: 100 µM
Kd [2]: 12 µM
